Laboratory results: publication PMC10689437

Molecular target: SARS-CoV-2 non-structural protein 3 (nsp3), released from the expressed HA-nsp3-4-V5 polyprotein (SARS-CoV-2)
Experiment: cryo-EM structure

SARS-CoV-2 non-structural protein 3 (nsp3), released from the expressed HA-nsp3-4-V5 polyprotein (natural protein)
stoichiometry N: 6
